What was measured:
[1] = target: T1, human CD3 (human, UniProt P07766 23-207); experiment: flow cytometry, primary human T cells
T1 construct: CD3 endogenously expressed on primary human T cells (whole TCR/CD3 complex); also called human CD3 (epsilon)
Procedure: Cynomolgus monkey PBMCs (Tebu-Bio, The Netherlands; cat. no. PBMCMFA-10) or purified human T cells were plated in polystyrene 96-well round-bottom plates. T cells were derived from human donor buffy coats (Sanquin, Amsterdam, The Netherlands) and isolated using the RosetteSep human T cell enrichment cocktail (Stemcell Technologies, France, cat. no. 15061) according to manufacturer's instructions. […] After washing twice in staining buffer, cells were incubated in 50 μL secondary R-PE-conjugated goat-anti-human IgG antibody at 4° C. for 30 min (1:400 dilution). After washing twice in staining buffer, T cells were stained for T-cell markers CD3 (1:100; Miltenyi biotec, clone 10D12, conjugated to APC), CD4 (1:50; eBioscience, clone OKT4, conjugated to APC-Cy7), CD8 (1:100; Biolegend, clone RPA-T8, conjugated to AF700) and T-cell activation markers CD69 (1:50; BD Biosciences, clone AB2439, conjugated to FITC), CD25 (1:50; eBioscience, clone BC96, conjugated to PE-Cy7) and CD279/PD1 (1:50; BD Biosciences, clone AEH12.2H7, conjugated to BV605). Single stained samples with Ultracomp beads (5 μL; Invitrogen, cat. no. 01-2222-42) were used for compensation adjustments of the flow cytometer. After 30 min of incubation at 4° C., cells were washed twice with staining buffer, resuspended in 100 μL staining buffer and analyzed using a FACS Fortessa (BD Biosciences). […]

[2] = target: T2, cynomolgus monkey CD3 (cynomolgus monkey, UniProt Q95LI5 22-198); experiment: flow cytometry, cynomolgus monkey T cells (PBMCs)
T2 construct: CD3 endogenously expressed on T cells within cynomolgus monkey PBMCs
T2 sequence (Q95LI5 22-198): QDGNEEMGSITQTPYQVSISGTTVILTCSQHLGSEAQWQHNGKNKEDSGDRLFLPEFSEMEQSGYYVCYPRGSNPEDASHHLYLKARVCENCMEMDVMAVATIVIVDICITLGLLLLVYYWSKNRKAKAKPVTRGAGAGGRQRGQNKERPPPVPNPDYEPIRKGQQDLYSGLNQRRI
Procedure: Cynomolgus monkey PBMCs (Tebu-Bio, The Netherlands; cat. no. PBMCMFA-10) or purified human T cells were plated in polystyrene 96-well round-bottom plates. T cells were derived from human donor buffy coats (Sanquin, Amsterdam, The Netherlands) and isolated using the RosetteSep human T cell enrichment cocktail (Stemcell Technologies, France, cat. no. 15061) according to manufacturer's instructions. […] After washing twice in staining buffer, cells were incubated in 50 μL secondary R-PE-conjugated goat-anti-human IgG antibody at 4° C. for 30 min (1:400 dilution). After washing twice in staining buffer, T cells were stained for T-cell markers CD3 (1:100; Miltenyi biotec, clone 10D12, conjugated to APC), CD4 (1:50; eBioscience, clone OKT4, conjugated to APC-Cy7), CD8 (1:100; Biolegend, clone RPA-T8, conjugated to AF700) and T-cell activation markers CD69 (1:50; BD Biosciences, clone AB2439, conjugated to FITC), CD25 (1:50; eBioscience, clone BC96, conjugated to PE-Cy7) and CD279/PD1 (1:50; BD Biosciences, clone AEH12.2H7, conjugated to BV605). Single stained samples with Ultracomp beads (5 μL; Invitrogen, cat. no. 01-2222-42) were used for compensation adjustments of the flow cytometer. After 30 min of incubation at 4° C., cells were washed twice with staining buffer, resuspended in 100 μL staining buffer and analyzed using a FACS Fortessa (BD Biosciences). Data were processed using FlowJo (BD Biosciences).

[3] = target: T3, human CD30 (human, UniProt P28908 19-595); experiment: flow cytometry, HDLM-2 cells
T3 construct: also called huCD30; TNFRSF8
T3 sequence: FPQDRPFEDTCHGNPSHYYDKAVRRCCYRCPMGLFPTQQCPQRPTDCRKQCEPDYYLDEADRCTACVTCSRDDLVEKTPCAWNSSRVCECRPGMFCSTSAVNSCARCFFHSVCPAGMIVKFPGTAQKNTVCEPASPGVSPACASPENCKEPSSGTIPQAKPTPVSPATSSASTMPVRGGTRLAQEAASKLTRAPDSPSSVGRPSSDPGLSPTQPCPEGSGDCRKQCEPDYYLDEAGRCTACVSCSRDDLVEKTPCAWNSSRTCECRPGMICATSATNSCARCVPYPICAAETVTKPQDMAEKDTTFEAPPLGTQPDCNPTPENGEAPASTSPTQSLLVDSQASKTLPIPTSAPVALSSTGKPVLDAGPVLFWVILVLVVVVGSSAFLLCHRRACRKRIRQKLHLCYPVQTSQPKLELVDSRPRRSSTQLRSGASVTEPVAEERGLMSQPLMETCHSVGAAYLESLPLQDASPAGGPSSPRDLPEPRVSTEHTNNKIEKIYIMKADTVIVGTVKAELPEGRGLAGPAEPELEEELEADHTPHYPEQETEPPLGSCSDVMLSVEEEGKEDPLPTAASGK
Method in brief: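 CD3×CD30 bispecific antibodies, 3-fold serial dilutions from 0.0046 to 10 μg/mL, incubated with 3×10⁴ SU-DHL-1 (ALCL) or HDLM-2 (HL) cells for 30 min at 4 °C, then secondary antibody 30 min at 4 °C. Live cells gated by FSC/SSC and TO-PRO-3 exclusion; binding curves fitted by four-parameter sigmoidal regression.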

[4] = target: T4, cynomolgus monkey (Macaca fascicularis) CD30 (cynomolgus monkey, UniProt P28908 19-595 (human entry)); experiment: flow cytometry, Expi293F cells transfected with cynomolgus monkey CD30 (mfCD30)
T4 construct: also called mfCD30
T4 chain: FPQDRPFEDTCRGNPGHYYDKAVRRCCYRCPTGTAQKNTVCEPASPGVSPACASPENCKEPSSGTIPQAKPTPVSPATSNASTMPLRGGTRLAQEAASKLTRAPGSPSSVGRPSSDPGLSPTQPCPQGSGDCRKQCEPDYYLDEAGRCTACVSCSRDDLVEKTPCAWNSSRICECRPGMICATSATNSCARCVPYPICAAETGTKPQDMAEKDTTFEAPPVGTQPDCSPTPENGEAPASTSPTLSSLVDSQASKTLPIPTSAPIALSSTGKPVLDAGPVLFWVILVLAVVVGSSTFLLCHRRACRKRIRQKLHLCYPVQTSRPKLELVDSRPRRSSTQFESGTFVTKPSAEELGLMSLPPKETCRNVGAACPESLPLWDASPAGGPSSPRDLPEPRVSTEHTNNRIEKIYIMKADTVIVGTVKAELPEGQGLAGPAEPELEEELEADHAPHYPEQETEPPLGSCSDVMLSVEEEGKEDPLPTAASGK
Procedure: Cells (3×10⁴ cells/well) were incubated in polystyrene 96-well round-bottom plates (Greiner bio-one, cat. no. 650180) with serial dilutions of antibodies (ranging from 0.005 to 10 μg/mL in 3-fold dilution steps) in 100 μL staining buffer at 4° C. for 30 min. Experiments were performed in technical duplicate. After washing twice in staining buffer, cells were incubated in 50 μL secondary antibody at 4° C. for 30 min. As a secondary antibody, R-PE-conjugated goat-anti-human IgG (Jackson ImmunoResearch, UK; cat. no. 109⁻¹¹⁶-098) diluted 1:400 in staining buffer was used. Cells were washed twice in staining buffer, resuspended in 30 μL staining buffer containing 0.4% EDTA and analyzed on an iQue Screener (Intellicyt Corporation, USA). Binding curves were analyzed using non-linear regression (sigmoidal dose-response with variable slope) using GraphPad Prism V9.0.0 software (GraphPad Software, San Diego, CA, USA).

T1 sequence (P07766 23-207 limits assumed): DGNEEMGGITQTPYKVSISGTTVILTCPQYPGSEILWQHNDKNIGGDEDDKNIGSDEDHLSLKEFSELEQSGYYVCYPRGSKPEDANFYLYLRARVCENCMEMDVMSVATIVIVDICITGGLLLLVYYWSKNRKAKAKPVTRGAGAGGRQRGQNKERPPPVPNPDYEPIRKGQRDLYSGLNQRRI

B1: IgG1-CD30-MDX060-FEAR (antibody)
heavy: QVQLQQWGAGLLKPSETLSLTCAVYGGSFSAYYWSWIRQPPGKGLEWIGDINHGGGTNYNPSLKSRVTISVDTSKNQFSLKLNSVTAADTAVYYCASLTAYWGQGSLVTVSSASTKGPSVFPLAPSSKSTSGGTAALGCLVKDYFPEPVTVSWNSGALTSGVHTFPAVLQSSGLYSLSSVVTVPSSSLGTQTYICNVNHKPSNTKVDKRVEPKSCDKTHTCPPCPAPEFEGGPSVFLFPPKPKDTLMISRTPEVTCVVVAVSHEDPEVKFNWYVDGVEVHNAKTKPREEQYNSTYRVVSVLTVLHQDWLNGKEYKCKVSNKALPAPIEKTISKAKGQPREPQVYTLPPSREEMTKNQVSLTCLVKGFYPSDIAVEWESNGQPENNYKTTPPVLDSDGSFFLYSRLTVDKSRWQQGNVFSCSVMHEALHNHYTQKSLSLSPG
light: DIQMTQSPTSLSASVGDRVTITCRASQGISSWLTWYQQKPEKAPKSLIYAASSLQSGVPSRFSGSGSGTDFTLTISSLQPEDFATYYCQQYDSYPITFGQGTRLEIKRTVAAPSVFIFPPSDEQLKSGTASVVCLLNNFYPREAKVQWKVDNALQSGNSQESVTEQDSKDSTYSLSSTLTLSKADYEKHKVYACEVTHQGLSSPVTKSFNRGEC
notes: Monospecific, bivalent parental antibody; also called IgG1-MDX060-FEAR
binding result [1]: no binding (tested: 10 ug/mL)
binding result [2]: no binding (tested: 10 ug/mL)
EC50 (read off the curve) [3]: ~0.2 µg/mL
binding result [4]: binds

Reference: patent publication US20260234255A1 (Genmab, published 2026)
